# T1: FRETS-VWF73 substrate, P04275
# T1 chain: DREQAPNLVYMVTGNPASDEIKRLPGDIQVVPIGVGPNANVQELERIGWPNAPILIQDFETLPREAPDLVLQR
# How the values were obtained:
# [1] = molecular target: recombinant VWF (full-length, multimeric rVWF), P04275
# [2] = molecular target: T1, FRETS-VWF73 substrate, P04275
# [3] = molecular target: von Willebrand factor (VWF), substrate of the in vitro cleavage of Table 1, P04275
protein,measurement,setting,value
Q97R ADAMTS13 variant (protein) AAGGILHLELLVAVGPDVFQAHREDTERYVLTNLNIGAELLRDPSLGAQFRVHLVKMVILTEPEGAPNITANLTSSLLSVCGWSQTINPEDDTDPGHADLVLYITRFDLELPDGNRQVRGVTQLGGACSPTWSCLITEDTGFDLGVTIAHEIGHSFGLEHDGAPGSGCGPSGHVMASDGAAPRAGLAWSPCSRRQLLSLLSAGRARCVWDPPRPQPGSAGHPPDAQPGLYYSANEQCRVAFGPKAVACTFAREHLDMCQALSCHTDPLDQSSCSRLLVPLLDGTECGVEKWCSKGRCRSLVELTPIAAVHGRWSSWGPRSPCSRSCGGGVVTRRRQCNNPRPAFGGRACVGADLQAEMCNTQACEKTQLEFMSQQCARTDGQPLRSSPGGASFYHWGAAVPHSQGDALCRHMCRAIGESFIMKRGDSFLDGTRCMPSGPREDGTLSLCVSGSCRTFGCDGRMDSQQVWDRCQVCGGDNSTCSPRKGSFTAGRAREYVTFLTVTPNLTSVYIANHRPLFTHLAVRIGGRYVVAGKMSISPNTTYPSLLEDGRVEYRVALTEDRLPRLEEIRIWGPLQEDADIQVYRRYGEEYGNLTRPDITFTYFQPKPRQAWVWAAVRGPCSVSCGAGLRWVNYSCLDQARKELVETVQCQGSQQPPAWPEACVLEPCPPYWAVGDFGPCSASCGGGLRERPVRCVEAQGSLLKTLPPARCRAGAQQPAVALETCNPQPCPARWEVSEPSSCTSAGGAGLALENETCVPGADGLEAPVTEGPGSVDEKLPAPEPCVGMSCPPGWGHLDATSAGEKAPSPWGSIRTGAQAAHVWTPAAGSCSVSCGRGLMELRFLCMDSALRVPVQEELCGLASKPGSRREVCQAVPCPARWQYKLAACSVSCGRGVVRRILYCARAHGEDDGEEILLDTQCQGLPRPEPQEACSLEPCPPRWKVMSLGPCSASCGLGTARRSVACVQLDQGQDVEVDEAACAALVRPEASVPCLIADCTYRWHVGTWMECSVSCGDGIQRRRDTCLGPQAQAPVPADFCQHLPKPVTVRGCWAGPCVGQGTPSLVPHEEAAAPGRTTATPAGASLEWSQARGLLFSPAPQPRRLLPGPQENSVQSSACGRQHLEPTGTIDMRGPGQADCAVAIGRPLGEVVTLRVLESSLNCSAGDMLLLWGRLTWRKMCRKLLDMTFSSKTNTLVVRQRCGRPGGGVLLRYGSQLAPETFYRECDMQLFGPWGEIVSPSLSPATSNAGGCRLFINVAPHARIAIHALATNMGAGTEGANASYILIRDTHSLRTTAFHGQQVLYWESESSQAEMEFSEGFLKAQASLRGQYWTLQSWVPEMQDPQSWKGKEGT,Degradation of full-length rVWF under denaturing conditions (VWF multimer analysis),[1],Comparable
same,Specific rADAMTS13 activity (activity per total protein by UV),[2],1740 IU/mg
same,rADAMTS13 Activity (FRETS VWF73),[2],1370 IU/mL
same,"specific activity (FRETS U/mg UV protein) against share of Q97R, regression",[2],suggesting that the Q^97R rADAMTS13 variant has similar activity to that of wildtype ADAMTS13
plasma derived ADAMTS13 (pdADAMTS13) (protein) AAGGILHLELLVAVGPDVFQAHQEDTERYVLTNLNIGAELLRDPSLGAQFRVHLVKMVILTEPEGAPNITANLTSSLLSVCGWSQTINPEDDTDPGHADLVLYITRFDLELPDGNRQVRGVTQLGGACSPTWSCLITEDTGFDLGVTIAHEIGHSFGLEHDGAPGSGCGPSGHVMASDGAAPRAGLAWSPCSRRQLLSLLSAGRARCVWDPPRPQPGSAGHPPDAQPGLYYSANEQCRVAFGPKAVACTFAREHLDMCQALSCHTDPLDQSSCSRLLVPLLDGTECGVEKWCSKGRCRSLVELTPIAAVHGRWSSWGPRSPCSRSCGGGVVTRRRQCNNPRPAFGGRACVGADLQAEMCNTQACEKTQLEFMSQQCARTDGQPLRSSPGGASFYHWGAAVPHSQGDALCRHMCRAIGESFIMKRGDSFLDGTRCMPSGPREDGTLSLCVSGSCRTFGCDGRMDSQQVWDRCQVCGGDNSTCSPRKGSFTAGRAREYVTFLTVTPNLTSVYIANHRPLFTHLAVRIGGRYVVAGKMSISPNTTYPSLLEDGRVEYRVALTEDRLPRLEEIRIWGPLQEDADIQVYRRYGEEYGNLTRPDITFTYFQPKPRQAWVWAAVRGPCSVSCGAGLRWVNYSCLDQARKELVETVQCQGSQQPPAWPEACVLEPCPPYWAVGDFGPCSASCGGGLRERPVRCVEAQGSLLKTLPPARCRAGAQQPAVALETCNPQPCPARWEVSEPSSCTSAGGAGLALENETCVPGADGLEAPVTEGPGSVDEKLPAPEPCVGMSCPPGWGHLDATSAGEKAPSPWGSIRTGAQAAHVWTPAAGSCSVSCGRGLMELRFLCMDSALRVPVQEELCGLASKPGSRREVCQAVPCPARWQYKLAACSVSCGRGVVRRILYCARAHGEDDGEEILLDTQCQGLPRPEPQEACSLEPCPPRWKVMSLGPCSASCGLGTARRSVACVQLDQGQDVEVDEAACAALVRPEASVPCLIADCTYRWHVGTWMECSVSCGDGIQRRRDTCLGPQAQAPVPADFCQHLPKPVTVRGCWAGPCVGQGTPSLVPHEEAAAPGRTTATPAGASLEWSQARGLLFSPAPQPRRLLPGPQENSVQSSACGRQHLEPTGTIDMRGPGQADCAVAIGRPLGEVVTLRVLESSLNCSAGDMLLLWGRLTWRKMCRKLLDMTFSSKTNTLVVRQRCGRPGGGVLLRYGSQLAPETFYRECDMQLFGPWGEIVSPSLSPATSNAGGCRLFINVAPHARIAIHALATNMGAGTEGANASYILIRDTHSLRTTAFHGQQVLYWESESSQAEMEFSEGFLKAQASLRGQYWTLQSWVPEMQDPQSWKGKEGT,"IU VWF RCo/ml left; ADAMTS13 0.1 U/ml, 0 h (IU VWF RCo/ml)",[3],0.75
same,"IU VWF RCo/ml left; ADAMTS13 0.1 U/ml, 15 seconds (IU VWF RCo/ml)",[3],0.38
same,"IU VWF RCo/ml left; ADAMTS13 0.1 U/ml, 30 seconds (IU VWF RCo/ml)",[3],0.37
same,"IU VWF RCo/ml left; ADAMTS13 0.1 U/ml, 1 minute (IU VWF RCo/ml)",[3],0.21
same,"IU VWF RCo/ml left; ADAMTS13 0.1 U/ml, 2 minutes (IU VWF RCo/ml)",[3],< 0.17
same,"IU VWF RCo/ml left; ADAMTS13 0.1 U/ml, 5 minutes (IU VWF RCo/ml)",[3],< 0.17
same,"IU VWF RCo/ml left; ADAMTS13 0.5 U/ml, 0 h (IU VWF RCo/ml)",[3],0.78
same,"IU VWF RCo/ml left; ADAMTS13 0.5 U/ml, 15 seconds (IU VWF RCo/ml)",[3],< 0.17
same,"IU VWF RCo/ml left; ADAMTS13 0.5 U/ml, 30 seconds (IU VWF RCo/ml)",[3],< 0.17
same,"IU VWF RCo/ml left; ADAMTS13 0.5 U/ml, 1 minute (IU VWF RCo/ml)",[3],< 0.17
same,"IU VWF RCo/ml left; ADAMTS13 0.5 U/ml, 2 minutes (IU VWF RCo/ml)",[3],< 0.17
same,"IU VWF RCo/ml left; ADAMTS13 0.5 U/ml, 5 minutes (IU VWF RCo/ml)",[3],< 0.17
same,"IU VWF RCo/ml left; ADAMTS13 1.0 U/ml, 0 h (IU VWF RCo/ml)",[3],0.26
same,"IU VWF RCo/ml left; ADAMTS13 1.0 U/ml, 15 seconds (IU VWF RCo/ml)",[3],< 0.17
same,"IU VWF RCo/ml left; ADAMTS13 1.0 U/ml, 30 seconds (IU VWF RCo/ml)",[3],< 0.17
same,"IU VWF RCo/ml left; ADAMTS13 1.0 U/ml, 1 minute (IU VWF RCo/ml)",[3],< 0.17
same,"IU VWF RCo/ml left; ADAMTS13 1.0 U/ml, 2 minutes (IU VWF RCo/ml)",[3],< 0.17
same,"IU VWF RCo/ml left; ADAMTS13 1.0 U/ml, 5 minutes (IU VWF RCo/ml)",[3],< 0.17
same,"specific activity (FRETS U/antigen U), compared with mixed rADAMTS13 batches",[2],the average specific activity of the mixed rADAMTS13 batches is comparable with the specific activity of pdADAMTS13

# Reference: patent US20230203469A1
